# B1: 99mTc-A1 (anti-mesothelin A1 single domain antibody radiolabeled with technetium-99m at its C-terminal hexahistidine tag) (VHH)
# VHH: QVQLVQSGGGLVHPGGSLRLSCAASGIDLSLYRMRWYRQAPGKERDLVALITDDGTSYYEDSVKGRFTITRDNPSNKVFLQMNSLKPEDTAVYYCNAETPLSPVNYWGQGTQVTVSH
# modifications: 99mTc-tricarbonyl at the C-terminal hexahistidine-tag (His-Tag)
# notes: Labeled by the tricarbonyl method; also called radiolabeled A1 nanobody
# B2: A1 anti-mesothelin single domain antibody, unlabeled (VHH)
# VHH: B1 VHH
# notes: Same protein as in m1, without the radiolabel; also called unlabeled A1; A1 nanobody
# Assays:
# [1] = biological target: T1, Mesothelin (MSLN) on MSLN-positive HCC70 human triple negative breast cancer cells (human, UniProt Q13421 296-598); assay: cell-based or functional assay
# [2] = biological target: T2, Human MSLN recombinant protein (R&D systems) (human, UniProt Q13421 296-580, limits assumed); assay: saturation radioligand binding on plate-immobilized recombinant human MSLN
# T2 construct: Bought protein, 100 ng immobilized on immunosorbent plates; also called recombinant MSLN; recombinant human mesothelin
# Method: (§1) Human MSLN recombinant protein (100 ng, R&D systems) was immobilized on immunosorbent plates (Corning Costar Stripwell, Sigma Aldrich) overnight at 4° C., and blocked with 1% milk. Serial dilutions of ^99mTc-A1 and ^99mTc-C6 from 1 μM to 0.8 nM were incubated for 1 hour. Unbound activity was removed by 5 serial washes with PBS-Tween 0.1%. The radioactivity in each well was determined using a γ-counter (Wizard², Perkin Elmer). Unspecific binding was determined by incubation of ^99mTC-A1 or ^99mTc-C6 in empty wells. Results were corrected from background and decay, and the [^99mTc-A1] and [^99mTc-C6] binding curves were fitted using a nonlinear regression equation (specific binding: Y=B max*X/(KD+X) with X being the radioligand concentration) and using GraphPad Prism 6 software to determine KD values. Uptake was normalized to the Bmax for graphic representation of 3 independent experiments.
# [3] = biological target: T1, Mesothelin (MSLN) on MSLN-positive …; assay: radioligand binding on cells in suspension, 40 nM 99mTc-A1, 1 h at 4 C, gamma counting
# Method: (§2) HCC70 and MDA-MB-231 cells were rinsed with PBS, detached using EDTA 5 mM, and resuspended at 200,000 cells per tube. Cells were incubated for 1 hour with PBS-BSA 1% and then with 40 nM of ^99mTc-A1 or 150 nM of ^99mTc-C6 for 1 h at 4° C., in the absence or presence of a 200-fold excess of unlabeled A1 or C6. Cell suspensions were centrifuged at 400 g during 5 min at 4° C., and washed 5-times with cold-PBS. Cells were then transferred to new tubes and radioactivity was determined using a γ-counter (Wizard², Perkin).
# [4] = biological target: T2, Human MSLN recombinant protein (R&D …); assay: saturation radioligand binding on plate-immobilized recombinant human MSLN, gamma counting, nonlinear fit
# Method: as §1
# [5] = biological target: T2, Human MSLN recombinant protein (R&D …); assay: saturation radioligand binding on recombinant human MSLN (as told in the discussion); value told in the discussion; recombinant human MSLN
# Method: as §1
# [6] = biological target: T1, Mesothelin (MSLN) on MSLN-positive …; assay: competition on HCC70 cells, 200-fold excess of unlabeled A1 against 40 nM 99mTc-A1 (competitor: 99mTc-A1)
# Method: as §2
# T2 sequence (Q13421 other isoform, or with tags, fused parts or gaps limits assumed): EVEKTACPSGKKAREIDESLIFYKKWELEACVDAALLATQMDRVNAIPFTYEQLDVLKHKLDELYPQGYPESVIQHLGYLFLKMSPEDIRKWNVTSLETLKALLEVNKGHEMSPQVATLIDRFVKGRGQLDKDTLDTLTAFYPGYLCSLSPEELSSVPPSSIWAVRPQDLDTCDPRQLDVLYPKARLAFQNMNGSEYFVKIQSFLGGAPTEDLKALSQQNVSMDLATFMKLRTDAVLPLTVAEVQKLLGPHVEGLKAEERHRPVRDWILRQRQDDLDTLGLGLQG
# T1 sequence (Q13421 other isoform, or with tags, fused parts or gaps limits assumed): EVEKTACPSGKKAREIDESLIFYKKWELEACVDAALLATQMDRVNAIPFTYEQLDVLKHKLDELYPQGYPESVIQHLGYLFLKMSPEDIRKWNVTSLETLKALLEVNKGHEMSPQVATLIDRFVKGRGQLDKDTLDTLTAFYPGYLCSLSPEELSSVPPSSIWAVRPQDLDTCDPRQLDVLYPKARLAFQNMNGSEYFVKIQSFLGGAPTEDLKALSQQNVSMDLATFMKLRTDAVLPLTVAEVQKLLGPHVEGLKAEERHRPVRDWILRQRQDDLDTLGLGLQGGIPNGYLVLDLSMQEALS
binder,measurement,setting,value
B1,"99mTc-A1 uptake in HCC70 tumors by SPECT quantification, with competition (150-fold excess of unlabeled A1)",[1],0.6 % ID/g
same,"fold decrease in 99mTc-A1 uptake in HCC70 tumors by SPECT quantification, co-injection of a 150-fold excess of unlabeled A1",[1],~7 fold
same,"fold decrease in 99mTc-A1 uptake in HCC70 tumors, ex vivo biodistribution, with excess of unlabeled A1",[1],~7 fold
same,fold affinity against 99mTc-C6,[2],> 2 fold
same,fold binding on HCC70 cells against MSLN-negative MDA-MB-231 cells,[3],7.9 fold
same,Kd,[4],43.9 nM
same,Kd,[5],35 nM
B2,fold decrease in 99mTc-A1 binding to HCC70 cells,[6],6 fold

# Reference: patent US20200197547A1 (INSERM INSTITUT NATIONAL DE LA SANT ET DE LA RECHERCHE M …, published 2020)
